From US20240301076A1 (CEPHALON, published 2024)

Legend:
[1] = target: T1, human CXCR2 (human, UniProt P25025 1-360); experiment: cell-based or functional assay
T1 sequence: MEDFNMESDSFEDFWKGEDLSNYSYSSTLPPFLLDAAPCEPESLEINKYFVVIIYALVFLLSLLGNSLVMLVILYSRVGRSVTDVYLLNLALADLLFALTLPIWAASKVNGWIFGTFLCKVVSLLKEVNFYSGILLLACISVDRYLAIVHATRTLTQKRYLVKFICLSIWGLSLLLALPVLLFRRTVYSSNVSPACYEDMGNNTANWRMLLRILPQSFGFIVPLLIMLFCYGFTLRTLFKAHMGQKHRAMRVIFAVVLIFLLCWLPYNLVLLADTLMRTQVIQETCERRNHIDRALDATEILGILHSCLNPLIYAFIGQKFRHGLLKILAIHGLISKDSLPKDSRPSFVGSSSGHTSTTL

[2] = target: T1, human CXCR2; experiment: cell-based or functional assay; remark: listed apart in the source
[3] = target: T1, human CXCR2; experiment: cell-based or functional assay; remark: listed apart in the source
[4] = target: T1, human CXCR2; experiment: cell-based or functional assay; remark: listed apart in the source
[5] = target: T1, human CXCR2; experiment: cell-based or functional assay; remark: listed apart in the source
[6] = target: T1, human CXCR2; experiment: flow cytometry, CXCR2-transfected Expi293F cells
Method: Harvested cells were resuspended in FACS buffer (1×PBS+0.5% (w/v) bovine serum albumin (BSA)+2 mM EDTA pH 7.2). Approximately 2×10⁵ cells were added per well in a 96-well round-bottomed plate. Cells were pelleted by centrifugation at 400 g for 5 mins at 4° C. and supernatants discarded. 25 μL of each test antibody or control antibody was added to the cells and incubated for 30 minutes at 4° C. Cells were washed twice in 100 μL FACS buffer followed by centrifugation at 400 g for 5 mins at 4° C.
For detection, 50 μL of secondary antibody (Table 2) was added to relevant samples. Commercially available antibodies that bound to transfected CXCR family members were used as positive controls to ensure that the cells were expressing the receptors. Cells were washed twice in 200 μL of FACS buffer followed by centrifugation at 400 g for 5 mins at 4° C. Before sample acquisition, cells were resuspended in 100 μL of FACS buffer. Samples were acquired using the high throughput sampler on a FACSCanto™ II cytometer (Beckton-Dickinson).
A further six heavy chain combinational variants comprising four or more amino acid substitutions were produced as provided in Table 12. […] Each heavy chain was co-expressed with light chain c (SEQ ID NO:110) to produce an antibody variant. Antibodies were purified and tested for CXCR2 binding activity as described in General Methods.

- CXCL1 Fold Improvement over 4A8 WT [1]: 1.49 fold
- CXCL1 IC50, Tango assay [1]: 630 pM
- CXCL8 Fold Improvement over 4A8 WT [1]: 2.39 fold
- CXCL8 IC50, Tango assay [1]: 280 pM
- IC50 mean, Hu CXCL1, Tango β-arrestin [2]: 270 pM
- IC50 mean, Hu CXCL2, Tango β-arrestin [2]: 360 pM
- IC50 mean, Hu CXCL3, Tango β-arrestin [2]: 390 pM
- IC50 mean, Hu CXCL5, Tango β-arrestin [2]: 300 pM
- IC50 mean, Hu CXCL6, Tango β-arrestin [2]: 280 pM
- IC50 mean, Hu CXCL7, Tango β-arrestin [2]: 440 pM
- IC50 mean, Hu CXCL8, Tango β-arrestin [2]: 340 pM
- IC50 mean, Hu CXCL1, calcium flux [3]: 1550 pM
- IC50 mean, Hu CXCL2, calcium flux [3]: 1620 pM
- IC50 mean, Hu CXCL3, calcium flux [3]: 630 pM
- IC50 mean, Hu CXCL5, calcium flux [3]: 1030 pM
- IC50 mean, Hu CXCL6, calcium flux [3]: 1710 pM
- IC50 mean, Hu CXCL7, calcium flux [3]: 2140 pM
- CXCL1 IC50, β-arrestin recruitment [4]: 380 pM
- CXCL5 IC50, β-arrestin recruitment [4]: 340 pM
- CXCL8 IC50, β-arrestin recruitment [4]: 340 pM
- CXCL1 IC50, calcium flux [5]: 1470 pM
- EC50 [6]: 3050 pM
- Max binding (MFI Percent of 4A8 WT) [6]: 89%
- Max binding (MFI) [6]: 55000 MFI
B1: BKO-4A8-101c (antibody, human IgG4 S228P, lambda, V domains shown)
VH: EVQLLESGGGLVQPGGSLRLSCAASGFTFSSSTQSWVRQPPGKGLEWVSAISGRGRSTYYADSVKGRFTISRDNSKNTLYLQMNSLRAEDTAVYYCAIQAGYWGQGILVTVSS
VL: QSALTQPPSASGSPGQSVTISCIGTSSDVGGYNYVSWYQQHPGKAPKLMIYEVSKRPSGVPDRFSGSKSGNTASLTVSGLQAEDEADYYCSSYAGSNNFGVFGGGTKLTVLG
